Patent publication US20240041922A1 (MONASH UNIVERSITY, published 2024)
Blank lines part the entries; values can stand above or below the binder they belong to.

Key:
[1] = target: CCR5 (as used in the NAMPTcif competition assay of FIG. 9b); assay: competition assay: inhibition of NAMPT binding to CCR5 by NAMPTcif (FIG. 9b); format not described
[2] = target: T1, human recombinant NAMPT(1) (recombinant human visfatin, PeproTech) (human, UniProt P43490 27-491, limits assumed); assay: ELISA: plate coated with 20 nM GST-hrCCR5, 0-800 nM hrNAMPT(1), biotinylated anti-NAMPT detection, BSA signal deducted, non-linear fit
T1 construct: Bought protein; also called hrNAMPT(1); hrNAMPT source 1
T1 sequence (P43490 27-491 limits assumed): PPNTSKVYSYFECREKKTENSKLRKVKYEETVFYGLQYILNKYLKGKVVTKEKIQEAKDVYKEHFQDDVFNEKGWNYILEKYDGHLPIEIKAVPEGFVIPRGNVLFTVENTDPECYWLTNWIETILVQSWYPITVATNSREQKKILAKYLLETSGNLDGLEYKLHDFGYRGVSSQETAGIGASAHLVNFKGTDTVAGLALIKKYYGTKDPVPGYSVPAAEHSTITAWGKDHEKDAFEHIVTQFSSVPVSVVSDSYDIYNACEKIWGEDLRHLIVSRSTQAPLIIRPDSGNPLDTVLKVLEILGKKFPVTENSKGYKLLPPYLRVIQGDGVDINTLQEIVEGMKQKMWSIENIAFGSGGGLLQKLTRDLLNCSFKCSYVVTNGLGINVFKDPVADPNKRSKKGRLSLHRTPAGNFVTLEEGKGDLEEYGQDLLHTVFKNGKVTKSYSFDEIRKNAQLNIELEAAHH
Description: Wells were blocked for 1 h at room temperature with 1% BSA in PBS containing 0.05% Tween-20 (PBS-T).

[3] = target: T2, recombinant mouse CCR5 (MyBioSource) (mouse, UniProt P51682 1-354, limits assumed); assay: competitive ELISA: plate coated with 20 nM mrCCR5, 0-400 nM mrCCL4 with 100 nM hrNAMPT(1) as competitor, bound hrNAMPT(1) detected
T2 construct: Coated on the ELISA plate at 20 nM; also called mrCCR5; mouse recombinant CCR5
T2 sequence (P51682 whole entry): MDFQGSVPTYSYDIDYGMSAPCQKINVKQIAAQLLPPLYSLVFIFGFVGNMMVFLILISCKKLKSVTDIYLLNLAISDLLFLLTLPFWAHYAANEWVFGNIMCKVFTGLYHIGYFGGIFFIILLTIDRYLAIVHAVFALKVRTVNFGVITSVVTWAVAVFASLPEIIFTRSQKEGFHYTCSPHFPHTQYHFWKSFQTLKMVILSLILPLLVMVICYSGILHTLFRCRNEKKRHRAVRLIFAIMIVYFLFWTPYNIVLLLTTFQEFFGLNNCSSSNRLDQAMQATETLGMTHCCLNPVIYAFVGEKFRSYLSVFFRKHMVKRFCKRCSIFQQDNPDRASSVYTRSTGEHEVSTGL
Description: Then, wells were blocked for 1 h at room temperature with 1% BSA in PBS containing 0.05% Tween-20 (PBS-T).

- IC50 [1]: 21.5 nM
B1: NAMPT402-491 (recombinant C-terminal 'cytokine finger' fragment of NAMPT) (ligand)
chain: MSYVVTNGLGVNVFKDPVADPNKRSKKGRLSLHRTPAGNFVTLEEGKGDLEEYGHDLLHTVFKNGKVTKSYSFDEVRKNAQLNIEQDVAPHHHHHHH
notes: Made in E. coli BL21(DE3) from pET22b(+) and purified on HisTap; also called NAMPTcif; cif

- Kd [2]: 172 nM
B2: GST-fused recombinant human CCR5 (Abcam) (receptor)
chain: not shown
notes: Coated on the ELISA plate at 20 nM; GST is put first here only by convention; also called hrCCR5; human recombinant CCR5; not shown: GST fusion partner

- IC50 [3]: 34.4 nM
B3: recombinant murine CCL4/MIP-1beta (PeproTech) (ligand, mouse, UniProt P14097 24-92, looked up)
chain: APMGSDPPTSCCFSYTSRQLHRSFVMDYYETSSLCSKPAVVFLTKRGRQICANPSEPWVTEYMSDLELN
notes: also called mrCCL4; mouse recombinant CCL4
